Laboratory results taken from patent publication US20180134794A1.
Like-named read-outs stand apart in the source and are kept apart here.

Key:
[1] = biological target: human MET (c-Met, HGFR) endogenously expressed on cell lines (human) (UniProt P08581)
[2] = biological target: human MET (c-Met, HGFR) endogenously expressed on cell lines (human) (UniProt P08581); remark: listed apart in the source

human MET (c-Met, HGFR) endogenously expressed on cell lines (human), sequence (P08581 25-1390): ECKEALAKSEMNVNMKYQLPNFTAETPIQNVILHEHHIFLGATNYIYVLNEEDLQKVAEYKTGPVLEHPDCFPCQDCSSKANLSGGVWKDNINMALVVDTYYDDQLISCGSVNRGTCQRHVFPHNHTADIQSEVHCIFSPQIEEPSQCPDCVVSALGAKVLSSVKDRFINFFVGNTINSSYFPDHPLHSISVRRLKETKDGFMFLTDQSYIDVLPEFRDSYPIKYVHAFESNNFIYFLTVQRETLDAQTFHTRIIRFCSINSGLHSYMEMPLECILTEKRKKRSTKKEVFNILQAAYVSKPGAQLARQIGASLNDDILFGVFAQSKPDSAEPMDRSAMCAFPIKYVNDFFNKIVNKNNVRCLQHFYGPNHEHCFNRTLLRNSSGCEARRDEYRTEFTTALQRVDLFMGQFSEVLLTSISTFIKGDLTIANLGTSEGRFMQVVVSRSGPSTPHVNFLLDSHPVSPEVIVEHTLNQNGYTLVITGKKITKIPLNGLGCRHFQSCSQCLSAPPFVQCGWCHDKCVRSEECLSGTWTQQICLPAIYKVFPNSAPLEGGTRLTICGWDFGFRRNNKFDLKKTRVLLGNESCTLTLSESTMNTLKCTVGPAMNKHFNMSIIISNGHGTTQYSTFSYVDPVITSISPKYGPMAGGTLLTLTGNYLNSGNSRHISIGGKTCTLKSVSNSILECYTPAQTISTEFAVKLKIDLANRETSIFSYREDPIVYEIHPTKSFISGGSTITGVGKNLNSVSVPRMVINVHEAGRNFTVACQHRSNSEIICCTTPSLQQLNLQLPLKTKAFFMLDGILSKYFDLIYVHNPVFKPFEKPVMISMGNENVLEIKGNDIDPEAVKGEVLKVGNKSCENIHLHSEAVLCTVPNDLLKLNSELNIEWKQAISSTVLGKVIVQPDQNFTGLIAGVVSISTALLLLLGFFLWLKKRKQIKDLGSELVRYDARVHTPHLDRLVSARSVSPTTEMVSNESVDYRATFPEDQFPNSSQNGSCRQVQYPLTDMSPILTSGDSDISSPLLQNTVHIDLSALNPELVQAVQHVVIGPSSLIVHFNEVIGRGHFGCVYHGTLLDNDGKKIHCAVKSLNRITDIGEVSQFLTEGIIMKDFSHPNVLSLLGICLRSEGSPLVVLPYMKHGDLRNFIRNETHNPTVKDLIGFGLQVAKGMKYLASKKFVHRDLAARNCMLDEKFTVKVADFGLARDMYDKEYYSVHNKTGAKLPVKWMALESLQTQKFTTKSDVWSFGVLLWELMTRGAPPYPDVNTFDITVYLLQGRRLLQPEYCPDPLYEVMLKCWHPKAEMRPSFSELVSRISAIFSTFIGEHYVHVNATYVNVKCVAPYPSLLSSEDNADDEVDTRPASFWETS

IC50 (read off the curve), inhibition of HGF-induced SRE-luciferase signal [1]: 0.06 nM | IC50 (read off the curve), inhibition of HGF-induced SRE-luciferase signal [2]: 0.4 nM
Substance: monovalent anti-MET antibody (heavy and light chain variable sequences of MetMab)
